# Where a chain is given by its changes, count along the chain named.
# T1: extracellular domain of human BCMA (human, UniProt Q02223 1-54)
# T1 construct: amine-linked to Octet AR2G tips; also called hsBCMA; BCMA (human)
# T1 sequence: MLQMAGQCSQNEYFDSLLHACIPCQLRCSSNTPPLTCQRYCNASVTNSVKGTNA
# T2: human BCMA on NCI-H929, OPM2 and Raji cells (human, UniProt Q02223 1-184)
# T2 construct: endogenous BCMA of human cell lines; also called TNFRSF17; CD269
# T2 chain: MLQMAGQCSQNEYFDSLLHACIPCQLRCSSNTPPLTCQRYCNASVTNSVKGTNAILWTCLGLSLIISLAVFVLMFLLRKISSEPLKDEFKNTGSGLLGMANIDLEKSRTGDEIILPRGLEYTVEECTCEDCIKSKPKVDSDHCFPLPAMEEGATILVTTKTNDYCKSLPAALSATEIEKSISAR
# B1: AB200-(2Vk31)_R2-VH-v20 (Fab, V domains shown)
# VH: QVQLVQSGAEVKKPGSSVKVSCKASGGTFSNYWIHWVRQAPGQGLEWMGGTYRSHSDTNYNQKFKSRVTITADKSTSTAYMELSSLRSEDTAVYYCARGAIYHGYDVIENWGQGTLVTVSS
# VL: DIQMTQSPSSLSASVGDRVTITCRASQSISSYLNWYQQKPGKAPKLLIYATSNLQIGVPSRFSGSGSGTDFTLTISSLQPEDFATYYCQQFRRLPWTFGQGTKLEIKR
# notes: also called AB200_VH2-20_VK2-31
# B2: AB200-(2Vk31)_R2-VH-v27 (Fab, V domains shown)
# VH: B1 VH with G50A, H55Q, D57T, N59Y, I101V, E109D
# VL: B1 VL
# notes: also called AB200_VH2-27_VK2-31
# B3: AB200-(2Vk31)_R2-VH-v3 (Fab, V domains shown)
# VH: B1 VH with S30T, D57T, N59Y, I101V, E109D
# VL: B1 VL
# notes: also called AB200_VH2-03_VK2-31
# B4: AB200-(2Vk30)_R2-VH-v37 (Fab, V domains shown)
# VH: B1 VH with G50A, H55Q, N59Y, F64Y, I101V, E109D
# VL: B1 VL with F91Y, L94I
# notes: also called AB200_VH2-37_VK2-30
# B5: AB214 (antibody, human IgG1, kappa, V domains shown)
# VH: B1 VH with G50A, H55Q, N59Y, F64Y, I101V, E109D
# VL: B1 VL with F91Y, L94I
# notes: IgG1 kappa
# B6: AB200 (antibody, human IgG1, kappa, V domains shown)
# VH: B1 VH with I34M, G50A, S54G, N59Y, S66G, H103D, I108L, E109D
# VL: B1 VL with R24S, S28D, S31N, A50Y, Q55H, I56S, F91Y, R93K
# notes: IgG1 kappa
# B7: AB216 (antibody, human IgG1, kappa, V domains shown)
# VH: B1 VH with G50A, S54I, H55Q, N59Y, F64Y, I101V, E109D
# VL: B1 VL with L33I, F91Y, T97S
# notes: IgG1 kappa
# B8: AB215 (antibody, human IgG1, kappa, V domains shown)
# VH: B1 VH with S30T, D57T, N59Y, I101V, E109D
# VL: B1 VL with F91Y, L94I
# notes: IgG1 kappa
# B9: AB212 (antibody, human IgG1, kappa, V domains shown)
# VH: B1 VH
# VL: B1 VL
# notes: IgG1 kappa
# B10: AB213 (antibody, human IgG1, kappa, V domains shown)
# VH: B1 VH with S30T, D57T, N59Y, I101V, E109D
# VL: B1 VL
# notes: IgG1 kappa
# B11: AB218 (antibody, human IgG1, kappa, V domains shown)
# VH: B1 VH with G50A, H55Q, D57T, N59Y, I101V, E109D
# VL: B1 VL
# notes: IgG1 kappa
# B12: AB217 (antibody, human IgG1, kappa, V domains shown)
# VH: B1 VH with S30T, G50A, N59Y, N61A, F64Y, I101V, E109D
# VL: B1 VL with L33I, I56S, F91Y, L94I
# notes: IgG1 kappa
# B13: AB200-(2Vk35)_R2-VH-v6 (Fab, V domains shown)
# VH: B1 VH with S30T, G50A, N59Y, N61A, F64Y, I101V, E109D
# VL: B1 VL with L33I, I56S, F91Y, L94I
# notes: also called AB200_VH2-06_VK2-35
# B14: AB214-ADL1-D2-02 (antibody, human IgG1, kappa, V domains shown)
# VH: B1 VH with G50A, H55Q, N59Y, F64Y, I101V, E109D
# VL: B1 VL with F91Y, L94I
# modifications: ADL1-D2 linker-payload on cysteine residues of the antibody, DAR 4.12
# B15: AB217-ADL1-D2-02 (antibody, human IgG1, kappa, V domains shown)
# VH: B1 VH with S30T, G50A, N59Y, N61A, F64Y, I101V, E109D
# VL: B1 VL with L33I, I56S, F91Y, L94I
# modifications: ADL1-D2 linker-payload on cysteine residues of the antibody, DAR 3.7
# B16: AB215-ADL1-D2-02 (antibody, human IgG1, kappa, V domains shown)
# VH: B1 VH with S30T, D57T, N59Y, I101V, E109D
# VL: B1 VL with F91Y, L94I
# modifications: ADL1-D2 linker-payload on cysteine residues of the antibody, DAR 3.96
# B17: AB216-ADL1-D2-02 (antibody, human IgG1, kappa, V domains shown)
# VH: B1 VH with G50A, S54I, H55Q, N59Y, F64Y, I101V, E109D
# VL: B1 VL with L33I, F91Y, T97S
# modifications: ADL1-D2 linker-payload on cysteine residues of the antibody, DAR 3.8
# B18: AB200-(2Vk44)_R2-VH-v75 (Fab, V domains shown)
# VH: B1 VH with G50A, S54I, H55Q, N59Y, F64Y, I101V, E109D
# VL: B1 VL with L33I, F91Y, T97S
# notes: also called AB200_VH2-75_VK2-44
# B19: AB200-ADL5-D4-05 (antibody, human IgG1, kappa, V domains shown)
# VH: B1 VH with I34M, G50A, S54G, N59Y, S66G, H103D, I108L, E109D
# VL: B1 VL with R24S, S28D, S31N, A50Y, Q55H, I56S, F91Y, R93K
# modifications: ADL5-D4 linker-payload on cysteine residues of the antibody, DAR 4.39
# notes: antibody-drug conjugate
# B20: AB200-mcMMAF-05 (antibody, human IgG1, kappa, V domains shown)
# VH: B1 VH with I34M, G50A, S54G, N59Y, S66G, H103D, I108L, E109D
# VL: B1 VL with R24S, S28D, S31N, A50Y, Q55H, I56S, F91Y, R93K
# modifications: mcMMAF (ADL10-MMAF) linker-payload on cysteine residues of the antibody, DAR 4.0
# notes: antibody-drug conjugate; also called AB200-ADL10-MMAF
# B21: AB200-(2Vk8)_R2-CDR1-hs-v4 (Fab, V domains shown)
# VH: B1 VH with N31S, W33A, H35S, G50A, H55Q, N59F, I101V, E109D
# VL: B1 VL with L33I, R93K, T97S
# B22: AB200-(2Vk8)_R2-CDR2-hs-v2 (Fab, V domains shown)
# VH: QVQLVQSGAEVKKPGSSVKVSCKASGGSFSNYWIHWVRQAPGQGLEWMGGIIPIFGTANYAQKFQGRVTITADKSTSTAYMELSSLRSEDTAVYYCARGAIFHGYDVIDNWGQGTLVTVSS
# VL: B1 VL with L33I, R93K, T97S
# Molecular target: T1, extracellular domain of human BCMA
# Experiment: Octet BLI; Fab 200 nM
row,Binder,Kd [nM]
1,B1,42
2,B2,7.13
3,B3,2.55

# Molecular target: T3, extracellular domain of rhesus monkey BCMA (rhesus monkey, UniProt F7FFA0 1-53)
# T3 construct: extracellular domain; also called RhBCMA
# Experiment: Octet BLI; Fab 200 nM
# T3 sequence (F7FFA0 entry or part of it): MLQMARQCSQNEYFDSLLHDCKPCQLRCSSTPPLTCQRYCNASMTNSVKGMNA
row,Binder,Kd [nM]
1,B1,93.8
2,B2,15.3
3,B3,5.73

# Molecular target: T1, extracellular domain of human BCMA
# Experiment: Octet BLI; Fab 200 nM
# Remark: another data set of the same source
row,Binder,Kd [nM]
1,B4,0.81

# Molecular target: T3, extracellular domain of rhesus monkey …
# Experiment: Octet BLI; Fab 200 nM
# Remark: another data set of the same source
row,Binder,Kd [nM]
1,B4,6.05

# Molecular target: T2, human BCMA on NCI-H929, OPM2 and Raji …
# Experiment: flow cytometry, Raji cells
row,Binder,Kd [nM]
1,B5,5.66
2,B6,14
3,B7,6.43
4,B8,11.2
5,B9,16
6,B10,8.83
7,B11,2.15
8,B12,7.31

# Molecular target: T2, human BCMA on NCI-H929, OPM2 and Raji …
# Experiment: flow cytometry on NCI-H929 cells (BCMA high), fluorescent anti-human IgG1 secondary antibody, MFI against antibody conc.
row,Binder,EC50 (read off the curve) [nM]
1,B5,~3
2,B8,~7
3,B10,~4
4,B12,~3

# Molecular target: T1, extracellular domain of human BCMA
# Experiment: Octet BLI; Fab 200 nM
# Remark: another data set of the same source
row,Binder,Kd [nM]
1,B13,1.29

# Molecular target: T3, extracellular domain of rhesus monkey …
# Experiment: Octet BLI; Fab 200 nM
# Remark: another data set of the same source
row,Binder,Kd [nM]
1,B13,9.36

# Molecular target: T2, human BCMA on NCI-H929, OPM2 and Raji …
# Experiment: cell-based or functional assay
Binder,"GI50 (nM) OPM2.1, cell viability [nM]","LD50 (nM) OPM2.1, cell viability [nM]"
B14,1.54,25.1
B15,2.17,16.3
B16,4.04,73.7
B17,1.56,14

# Molecular target: T1, extracellular domain of human BCMA
# Experiment: Octet BLI; Fab 200 nM
# Remark: another data set of the same source
row,Binder,Kd [nM]
1,B13,1.66
2,B18,1.07
3,B4,1.14
4,B1,38.6
5,B2,6.43
6,B3,2.7

# Molecular target: T3, extracellular domain of rhesus monkey …
# Experiment: Octet BLI; Fab 200 nM
# Remark: another data set of the same source
row,Binder,Kd [nM]
1,B13,9.6
2,B18,5.53
3,B4,6.33
4,B1,79.3
5,B2,13.9
6,B3,5.03

# Molecular target: T2, human BCMA on NCI-H929, OPM2 and Raji …
# Experiment: flow cytometry on NCI-H929 cells (BCMA high), fluorescent anti-human IgG1 secondary antibody, MFI against test article concentration
row,Binder,EC50 (read off the curve) [nM]
1,B19,~9
2,B14,~1
3,B20,~6
4,B15,~0.4
5,B16,~1
6,B17,~0.7

# Molecular target: T2, human BCMA on NCI-H929, OPM2 and Raji …
# Experiment: flow cytometry, NCI-H929 cells
row,Binder,Kd [nM]
1,B5,2.84
2,B6,50.5
3,B7,3.05
4,B8,8.06
5,B9,9.68
6,B10,4.26
7,B11,0.987
8,B12,3.38

# Molecular target: T2, human BCMA on NCI-H929, OPM2 and Raji …
# Experiment: flow cytometry, OPM2 cells
row,Binder,Kd [nM]
1,B5,2.12
2,B6,10
3,B7,2.27
4,B8,3.63
5,B9,4.33
6,B10,1.96
7,B11,0.687
8,B12,2.33

# Molecular target: T2, human BCMA on NCI-H929, OPM2 and Raji …
# Experiment: flow cytometry, NCI-H929 cells
# Remark: another data set of the same source
row,Binder,Kd [nM]
1,B19,6 to 10
2,B20,6 to 10

# Molecular target: T1, extracellular domain of human BCMA
# Experiment: Octet BLI; Fab 200 nM
# Remark: another data set of the same source
row,Binder,Kd [nM]
1,B18,0.8

# Molecular target: T3, extracellular domain of rhesus monkey …
# Experiment: Octet BLI; Fab 200 nM
# Remark: another data set of the same source
row,Binder,Kd [nM]
1,B18,5.22

# Molecular target: T1, extracellular domain of human BCMA
# Experiment: Octet BLI; Fab 200 nM
# Remark: another data set of the same source
row,Binder,Kd [nM]
1,B21,591
2,B22,151

# Molecular target: T3, extracellular domain of rhesus monkey …
# Experiment: Octet BLI; Fab 200 nM
# Remark: another data set of the same source
row,Binder,Kd [nM]
1,B21,773

# Molecular target: T2, human BCMA on NCI-H929, OPM2 and Raji …
# Experiment: flow cytometry, NCI-H929 cells
# Remark: another data set of the same source
row,Binder,Kd [nM]
1,B19,9.8
2,B14,1.02
3,B15,0.366
4,B16,1.3
5,B17,0.836

# — US20240327535A1 (EISAI R AND D MANAGEMENT, published 2024)
